# Reference: patent US20100130424A1 (Janssen / Centocor, published 2010)
# Numbering of substitutions follows the chain as printed. No end group written: not given here.
# B1: Pegylated Cys-variant CRHR2 peptide agonist (NES linker, PEG about 20 kDa), SEQ ID NO: 79 (peptide)
# peptide: TKFTLSLDVPTNIMNLLFNIAKAKCLRAQAAANAHLMAQI
# modifications: NES-PEG (about 20 kDa) on Cys 25; C-terminal amide
# B2: Pegylated Cys-variant CRHR2 peptide agonist (NES linker, PEG about 20 kDa), SEQ ID NO: 85 (peptide)
# peptide: B1 peptide with C25N, A31C
# modifications: NES-PEG (about 20 kDa) on Cys 31; C-terminal amide
# B3: Pegylated Cys-variant CRHR2 peptide agonist (NES linker, PEG about 20 kDa), SEQ ID NO: 87 (peptide)
# peptide: B1 peptide with C25N, N33C
# modifications: NES-PEG (about 20 kDa) on Cys 33; C-terminal amide
# B4: Pegylated Cys-variant CRHR2 peptide agonist (NES linker, PEG about 20 kDa), SEQ ID NO: 68 (peptide)
# peptide: B1 peptide with M14C, C25N
# modifications: NES-PEG (about 20 kDa) on Cys 14; C-terminal amide
# B5: Pegylated Cys-variant CRHR2 peptide agonist (NES linker, PEG about 20 kDa), SEQ ID NO: 71 (peptide)
# peptide: B1 peptide with L17C, C25N
# modifications: NES-PEG (about 20 kDa) on Cys 17; C-terminal amide
# B6: Pegylated Cys-variant CRHR2 peptide agonist (NES linker, PEG about 20 kDa), SEQ ID NO: 84 (peptide)
# peptide: B1 peptide with C25N, A30C
# modifications: NES-PEG (about 20 kDa) on Cys 30; C-terminal amide
# B7: Pegylated Cys-variant CRHR2 peptide agonist (NES linker, PEG about 20 kDa), SEQ ID NO: 72 (peptide)
# peptide: B1 peptide with F18C, C25N
# modifications: NES-PEG (about 20 kDa) on Cys 18; C-terminal amide
# B8: Pegylated Cys-variant CRHR2 peptide agonist (NES linker, PEG about 20 kDa), SEQ ID NO: 77 (peptide)
# peptide: B1 peptide with A23C, C25N
# modifications: NES-PEG (about 20 kDa) on Cys 23; C-terminal amide
# B9: Pegylated Cys-variant CRHR2 peptide agonist (NES linker, PEG about 20 kDa), SEQ ID NO: 80 (peptide)
# peptide: B1 peptide with C25N, L26C
# modifications: NES-PEG (about 20 kDa) on Cys 26; C-terminal amide
# B10: Pegylated Cys-variant CRHR2 peptide agonist (NES linker, PEG about 20 kDa), SEQ ID NO: 69 (peptide)
# peptide: B1 peptide with N15C, C25N
# modifications: NES-PEG (about 20 kDa) on Cys 15; C-terminal amide
# B11: Pegylated Cys-variant CRHR2 peptide agonist (NES linker, PEG about 20 kDa), SEQ ID NO: 74 (peptide)
# peptide: B1 peptide with I20C, C25N
# modifications: NES-PEG (about 20 kDa) on Cys 20; C-terminal amide
# B12: Pegylated Cys-variant CRHR2 peptide agonist (NES linker, PEG about 20 kDa), SEQ ID NO: 76 (peptide)
# peptide: B1 peptide with K22C, C25N
# modifications: NES-PEG (about 20 kDa) on Cys 22; C-terminal amide
# B13: Pegylated Cys-variant CRHR2 peptide agonist (NES linker, PEG about 20 kDa), SEQ ID NO: 75 (peptide)
# peptide: B1 peptide with A21C, C25N
# modifications: NES-PEG (about 20 kDa) on Cys 21; C-terminal amide
# B14: Pegylated Cys-variant CRHR2 peptide agonist (NES linker, PEG about 20 kDa), SEQ ID NO: 70 (peptide)
# peptide: B1 peptide with L16C, C25N
# modifications: NES-PEG (about 20 kDa) on Cys 16; C-terminal amide
# B15: Pegylated Cys-variant CRHR2 peptide agonist (NES linker, PEG about 20 kDa), SEQ ID NO: 86 (peptide)
# peptide: B1 peptide with C25N, A32C
# modifications: NES-PEG (about 20 kDa) on Cys 32; C-terminal amide
# B16: Pegylated Cys-variant CRHR2 peptide agonist (NES linker, PEG about 20 kDa), SEQ ID NO: 82 (peptide)
# peptide: B1 peptide with C25N, A28C
# modifications: NES-PEG (about 20 kDa; MW20000) on Cys 28; C-terminal amide
# B17: Pegylated Cys-variant CRHR2 peptide agonist (NES linker, PEG about 20 kDa), SEQ ID NO: 81 (peptide)
# peptide: B1 peptide with C25N, R27C
# modifications: NES-PEG (about 20 kDa) on Cys 27; C-terminal amide
# B18: Pegylated Cys-variant CRHR2 peptide agonist (NES linker, PEG about 20 kDa), SEQ ID NO: 83 (peptide)
# peptide: B1 peptide with C25N, Q29C
# modifications: NES-PEG (about 20 kDa) on Cys 29; C-terminal amide
# B19: Pegylated Cys-variant CRHR2 peptide agonist (NES linker, PEG about 20 kDa), SEQ ID NO: 73 (peptide)
# peptide: B1 peptide with N19C, C25N
# modifications: NES-PEG (about 20 kDa) on Cys 19; C-terminal amide
# B20: Cys-variant CRHR2 peptide agonist, SEQ ID NO: 15 (peptide)
# peptide: TKFTLSLDVPTNICNLLFNIAKAKNLRAQAAANAHLMAQI-NH2
# B21: Cys-variant CRHR2 peptide agonist, SEQ ID NO: 21 (peptide)
# peptide: TKFTLSLDVPTNIMNLLFNCAKAKNLRAQAAANAHLMAQI-NH2
# B22: Cys-variant CRHR2 peptide agonist, SEQ ID NO: 14 (peptide)
# peptide: TKFTLSLDVPTNCMNLLFNIAKAKNLRAQAAANAHLMAQI-NH2
# B23: Cys-variant CRHR2 peptide agonist, SEQ ID NO: 26 (peptide)
# peptide: TKFTLSLDVPTNIMNLLFNIAKAKCLRAQAAANAHLMAQI-NH2
# Target: T1, human CRH receptor type 2 (human, UniProt Q13324 1-411)
# T1 sequence (looked up): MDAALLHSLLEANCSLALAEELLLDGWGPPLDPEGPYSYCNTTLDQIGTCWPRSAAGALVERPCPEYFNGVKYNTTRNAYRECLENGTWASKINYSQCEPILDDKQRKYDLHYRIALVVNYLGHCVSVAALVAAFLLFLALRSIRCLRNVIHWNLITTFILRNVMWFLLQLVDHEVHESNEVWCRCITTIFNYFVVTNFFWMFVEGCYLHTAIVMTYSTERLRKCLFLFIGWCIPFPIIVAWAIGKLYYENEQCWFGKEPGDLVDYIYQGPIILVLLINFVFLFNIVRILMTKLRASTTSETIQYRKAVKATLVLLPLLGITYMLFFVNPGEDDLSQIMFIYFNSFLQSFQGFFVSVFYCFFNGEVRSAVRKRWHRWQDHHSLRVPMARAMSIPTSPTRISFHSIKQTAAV
# Assay: cell-based or functional assay
Binder,"Log DR against h-SCP, cAMP [log10 ratio]","pA50, cAMP"
B1,1.11,8.5 -log M
B2,0.89,8.51 -log M
B3,> 3.68,~6 -log M
B4,~2.61,~6.96 -log M
B5,~2.26,~7.35 -log M
B6,~2.84,~6.82 -log M
B7,1.5,8.04 -log M
B8,1.27,8.27 -log M
B9,1.75,7.6 -log M
B10,2.09,7.45 -log M
B11,~2.28,~7.33 -log M
B12,2.7,6.84 -log M
B13,1.3,8.24 -log M
B14,~2.07,~7.34 -log M
B15,0.82,8.79 -log M
B16,1.12,8.4 -log M
B17,1.82,7.83 -log M
B18,1.63,7.91 -log M
B19,1.11,8.29 -log M
B20,0.9,8.68 -log M
B21,0.77,8.75 -log M
B22,> 2,~7.34 -log M
B23,0.08,9.44 -log M
